Patent US20160046721A1

Columns and labels:
[1] = target: human ER-α36 (human) (UniProt P03372); test: flow cytometry on K562 cells, isotype control, concentration not given
[2] = target: ER-α36 LBD (3T3 Clone#4); test: flow cytometry on 3T3 cells, ER-α36 LBD Clone#4, isotype control at 2.5 µg/ml
[3] = target: human ER-α36 (human) (UniProt P03372); test: flow cytometry on 3T3 cells, ER-α36 Full length Clone#2, isotype control at 2.5 µg/ml
[4] = target: human ER-α36 (human) (UniProt P03372); test: flow cytometry on SK-BR-3 cells, isotype control; lower left panel without sample name, assigned by the order of the samples
[5] = target: human ER-α36 (human) (UniProt P03372); test: flow cytometry on MHCC-97H cells, isotype control; second lower panel without sample name, assigned by peak height against histogram 3 of the overlay
[6] = target: human ER-α36 (human) (UniProt P03372); test: flow cytometry on MCF-7 cells, isotype control; lower left panel, which carries no sample name: assigned by peak height and by the order of the samples
[7] = target: human ER-α36 (human) (UniProt P03372); test: flow cytometry on MHCC-97H cells, isotype control; first lower panel without sample name, assigned by peak height (about 75) against histogram 4 of the overlay

Chain of human ER-α36 (human) (P03372 other isoform, or with tags, fused parts or gaps): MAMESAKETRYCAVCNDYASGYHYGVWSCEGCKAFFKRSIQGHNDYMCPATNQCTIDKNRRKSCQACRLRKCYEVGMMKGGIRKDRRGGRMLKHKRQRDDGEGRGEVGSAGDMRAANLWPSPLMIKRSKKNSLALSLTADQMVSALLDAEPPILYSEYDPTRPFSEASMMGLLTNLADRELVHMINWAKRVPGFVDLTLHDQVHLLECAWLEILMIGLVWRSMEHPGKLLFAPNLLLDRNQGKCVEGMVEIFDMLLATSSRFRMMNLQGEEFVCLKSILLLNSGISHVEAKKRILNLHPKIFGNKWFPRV
Chain of ER-α36 LBD (3T3 Clone#4) (single chain, as listed by the source): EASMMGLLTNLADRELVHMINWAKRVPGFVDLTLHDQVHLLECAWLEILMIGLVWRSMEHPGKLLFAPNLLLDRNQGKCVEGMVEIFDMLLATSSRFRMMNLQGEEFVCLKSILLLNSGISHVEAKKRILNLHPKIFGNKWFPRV

mouse IgG2b (antibody)
Geom. Mean FL1 [1]: 24.3 | %Gated (region B) [2]: 4.93% | %Gated (region B) [3]: 4.86% | Yellow-A subset (percent of cells in the gate) [4]: 13.1% | Yellow-A subset (percent of cells in the gate) [5]: 5.68% | Yellow-A subset (percent of cells in the gate) [6]: 19.9% | Yellow-A subset (percent of cells in the gate) [7]: 6.82%
